Experimental findings from publication PMC12720421, “Disordered N‐termini enhance the thermostability of SGNH‐hydrolase family polyesterases” (Protein Science : A Publication of the Protein Society, 2025) are described below.

Where “and” joins values, the source holds several entries; their conditions need not be identical. Equal values may be shown once.

One data set deals with T1, Ft_EST (Fontimonas thermophila, UniProt A0A1I2JG86).
T1 construct: gene SAMN04488120_10748
T1 sequence (A0A1I2JG86 25-217): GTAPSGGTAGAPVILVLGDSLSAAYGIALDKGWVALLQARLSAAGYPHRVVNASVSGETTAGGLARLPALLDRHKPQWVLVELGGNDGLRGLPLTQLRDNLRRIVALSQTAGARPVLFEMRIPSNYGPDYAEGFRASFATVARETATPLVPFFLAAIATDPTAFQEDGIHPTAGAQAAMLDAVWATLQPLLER
Nature of the data set: pNP release at […] nm, specific activity. Format: biochemical. Conditions: 50 mM Tris pH 8.5, 5% methanol.

The next data set has as its target T2, Pmt_EST (Zestomonas thermotolerans, UniProt Z9LQW2KWT1).
T2 sequence (Z9LQW2KWT1 41-245): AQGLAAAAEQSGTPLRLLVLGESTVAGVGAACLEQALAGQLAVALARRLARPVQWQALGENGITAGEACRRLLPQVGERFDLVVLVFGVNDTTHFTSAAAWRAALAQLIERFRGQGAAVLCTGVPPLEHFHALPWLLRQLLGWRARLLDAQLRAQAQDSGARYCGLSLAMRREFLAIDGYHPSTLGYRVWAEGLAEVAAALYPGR
Nature of the data set: pNP release at […] nm, specific activity. Conditions: 50 mM Tris pH 8.5, 5% methanol. Type of data set: biochemical.

The subject of data set [1] is CCCC(=O)Oc1ccc([N+](=O)[O-])cc1. Briefly: purified protein. Type of data set: biochemical, Maribacter thermophilus. The settings on record: 50 mM Tris pH 8.0, room temperature, 5% methanol, 0.05-0.1 μM enzyme.
Data set [2] deals with Rp_EST from Rhodothermus profundi (Rhodothermus profundi). Nature of the data set: SEC; analytical SEC on a Superdex 200 Increase 10/300 GL column, with a BioRad Gel Filtration Standard; self-association of each purified esterase. In general terms: Size exclusion chromatography separates by hydrodynamic size, large species first.
In data set [3] the target is PpEST from Pseudomonas oleovorans (Pseudomonas oleovorans). The data set is described as above.
Substrate in data set [4]: CCCC(=O)Oc1ccc([N+](=O)[O-])cc1
Nature of the data set: purified protein. Type of data set: biochemical, Rhodothermus profundi. Conditions: 50 mM Tris pH 8.0, room temperature, 5% methanol, 0.05-0.1 μM enzyme.

Substrate in data set [5]: CCCC(=O)Oc1ccc([N+](=O)[O-])cc1
Nature of the data set: purified protein. Type of data set: biochemical, Chloracidobacterium thermophilum. Conditions: 50 mM Tris pH 8.0, room temperature, 5% methanol, 0.05-0.1 μM enzyme.

Substrate in data set [6]: CCCC(=O)Oc1ccc([N+](=O)[O-])cc1
Briefly: purified protein. Type of data set: biochemical, Altericroceibacterium indicum. Conditions: 50 mM Tris pH 8.0, room temperature, 5% methanol, 0.05-0.1 μM enzyme.

Substrate in data set [7]: CCCC(=O)Oc1ccc([N+](=O)[O-])cc1
Nature of the data set: purified protein. Type of data set: biochemical, Ectopseudomonas oleovorans. The settings on record: 50 mM Tris pH 8.0, room temperature, 5% methanol, 0.05-0.1 μM enzyme.

The term Km denotes the substrate concentration at which the rate is half of its maximum. In general, kcat refers to the number of substrate molecules converted per active site and unit of time at saturation. As usually defined, the kcat/Km is the second-order rate constant that governs catalysis at low substrate concentration. Usually stoichiometry N stands for the number of molecules, sites or subunits per partner or assembly.

For `CCCC(=O)Oc1ccc([N+](=O)[O-])cc1` [pNP-butyrate], the “pNP release at 410 nm, specific activity” value on Ft_EST is reported as “showed a clear preference for mid‐chain length esters, particularly pNP‐butyrate (C4)”; on Pmt_EST, “showed a clear preference for mid‐chain length esters, particularly pNP‐butyrate (C4)”.
Take Mt_EST (Maribacter thermophilus): in [1], the Km is 453 ± 81 µM, the kcat amounted to 54.4 ± 4.4 s⁻¹ and the catalytic efficiency (kcat/Km) stood at 120000 M⁻¹ s⁻¹.
Consider “Rp_EST from Rhodothermus profundi (enzyme)”, for which the stoichiometry N in data set [2] is 2 and 4.
On to “PpEST from Pseudomonas oleovorans (enzyme)”, for which the stoichiometry N in data set [3] turned out to be 2.

B1: Rp_EST (Rhodothermus profundi) (protein)
chain: QDTSKSSASSSEGSPDTTAKTPTHAARAAQPITVLVLGNSLAAGYGLSPDEAFPAILQRKVDSLGWPVRILNAGLSGETSAGGLRRIDWLLRERIDVLILELGANDGLRGIDPEVTRQNLQGIIDKVRARYPEADIILAGMQLPPNLGPAYTAAFRALYPELARANNAYLIPFLLEGVGGVPELNQADGIHPTAEGQRIVAENVWRVLRPVLERRLGLA
B1: in “purified protein [4]”, the Km was 246 ± 72 µM, the kcat was 12 ± 1.3 s⁻¹ and the kcat/Km was 49000 M⁻¹ s⁻¹.

B2: Ct_EST (Chloracidobacterium thermophilum B) (protein)
chain: GGCSRTGTEAPENLPVLAPAPTDAAPTARPRIVVLGDSLTAGFGLPREASYPTVLQKKLDAAGLNYQVINAGISGDTSAGGVERLDWSLDGDVRIVILALGANDGLRGLPLTQMEANLRTIIERARARGAQVILAGLKAPAEAGPDYGAQFEAVYRKLAQQYRLPLIPSLLEGVAGREELNQEDGIHPNARGAAIVADNVWKVLEPVARQQLAQSQSNPDAPPAAKPAGAR
For B2, in “purified protein [5]”, the Km was 791 ± 178 µM, the kcat is 38.5 ± 4.8 s⁻¹ and the kcat/Km is 49000 M⁻¹ s⁻¹.

B3: AlinE4 (Altericroceibacterium indicum) (protein)
chain: SMGESRVILAFGDSLFAGYGLDKGESYPAKLETALRSHGINARIINAGVSGDTTAAGLQRIKFVLDSQPDKPELAIVELGGNDLLRGLSPAEARQNLSGILEELQRRKIPILLMGMRAPPNLGAKYQREFDGIYPYLAEKYDAKLVPFFLEAVADRPDLIQKDHVHPTARGVEELVSATSNAVAKALPAKK
With B3, in “purified protein [6]”, the Km was found to be 194 ± 55 µM, the kcat was 15 ± 1.4 s⁻¹ and the kcat/Km came to 77000 M⁻¹ s⁻¹.

B4: shRp_EST (Rhodothermus profundi) (protein)
chain: ITVLVLGNSLAAGYGLSPDEAFPAILQRKVDSLGWPVRILNAGLSGETSAGGLRRIDWLLRERIDVLILELGANDGLRGIDPEVTRQNLQGIIDKVRARYPEADIILAGMQLPPNLGPAYTAAFRALYPELARANNAYLIPFLLEGVGGVPELNQADGIHPTAEGQRIVAENVWRVLRPVLERRLGLA
notes: N-terminal extension truncated to align with AlinE4 and PpEST (borders not in main text), C-terminal 6xHis tag, E. coli, monomer
B4: in “purified protein [4]”, the Michaelis constant (Km) is 257 ± 43 µM, the catalytic constant (kcat) is 25 ± 1.6 s⁻¹ and the specificity constant (kcat/Km) stood at 97000 M⁻¹ s⁻¹.

B5: PpEST (Ectopseudomonas oleovorans CECT 5344) (protein)
chain: GTLLVVGDSISAAFGLDSRQGWVALLEKRLSEEGFEHSVVNASISGDTSAGGAARLSALLAEHKPELVIIELGGNDGLRGQPPAQLQQNLASMVEQSQQAGAKVLLLGMKLPPNYGVRYTTAFAQVFTDLAEQKQVSLVPFFLEGVGGVPGMMQADGIHPAEAAQEILLDNVWPTLKPML
Consider B5, for which, in “purified protein [7]”, the Km is 242 ± 49 µM, the turnover number (kcat) amounted to 14 ± 1 s⁻¹ and the specificity constant (kcat/Km) is 58000 M⁻¹ s⁻¹.

B6: shCt_EST (Chloracidobacterium thermophilum B) (protein)
chain: TARPRIVVLGDSLTAGFGLPREASYPTVLQKKLDAAGLNYQVINAGISGDTSAGGVERLDWSLDGDVRIVILALGANDGLRGLPLTQMEANLRTIIERARARGAQVILAGLKAPAEAGPDYGAQFEAVYRKLAQQYRLPLIPSLLEGVAGREELNQEDGIHPNARGAAIVADNVWKVLEPVARQQLAQSQSNPDAPPAAKPAGAR
notes: as for B4
Consider B6, for which, in the data set “purified protein [5]”, the Km was 646 ± 139 µM, the turnover number (kcat) amounted to 33.3 ± 3.7 s⁻¹ and the specificity constant (kcat/Km) is 52000 M⁻¹ s⁻¹.
